Legend:
[1] = biological target: T1, G protein-coupled receptor protein ZAQ (human, UniProt Q8TCW9 1-393); test: displacement of 125I-MIT1 from ZAQC-B1 CHO cell membrane fraction, glass fiber filter binding assay
T1 construct: Stably expressed in CHO/dhfr- cells (clone ZAQC-B1); Whole cells in the FLIPR assays; also called ZAQ receptor; ZAQC-B1 cells

[2] = biological target: T2, human type I5E receptor protein (human, UniProt Q8NFJ6 1-384); test: displacement of 125I-MIT1 from I5E-4 CHO cell membrane fraction, glass fiber filter binding assay
T2 construct: Stably expressed in CHO/dhfr- cells (clone I5E-4); Whole cells in the FLIPR assays; also called ISE receptor; I5E-4 cell

[3] = biological target: T1, G protein-coupled receptor protein ZAQ; test: cell-based or functional assay

T1 sequence (Q8TCW9 whole entry): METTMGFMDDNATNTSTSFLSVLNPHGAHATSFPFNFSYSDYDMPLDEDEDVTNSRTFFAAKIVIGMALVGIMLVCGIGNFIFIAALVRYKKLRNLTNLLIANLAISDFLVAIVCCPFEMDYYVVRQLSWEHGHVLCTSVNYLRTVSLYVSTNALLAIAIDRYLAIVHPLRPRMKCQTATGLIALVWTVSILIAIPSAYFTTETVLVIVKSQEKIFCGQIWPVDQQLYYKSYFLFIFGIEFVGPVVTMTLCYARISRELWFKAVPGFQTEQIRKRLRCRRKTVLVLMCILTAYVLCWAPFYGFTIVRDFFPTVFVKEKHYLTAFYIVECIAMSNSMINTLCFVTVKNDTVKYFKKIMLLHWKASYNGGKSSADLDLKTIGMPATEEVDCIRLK
T2 sequence (Q8NFJ6 whole entry): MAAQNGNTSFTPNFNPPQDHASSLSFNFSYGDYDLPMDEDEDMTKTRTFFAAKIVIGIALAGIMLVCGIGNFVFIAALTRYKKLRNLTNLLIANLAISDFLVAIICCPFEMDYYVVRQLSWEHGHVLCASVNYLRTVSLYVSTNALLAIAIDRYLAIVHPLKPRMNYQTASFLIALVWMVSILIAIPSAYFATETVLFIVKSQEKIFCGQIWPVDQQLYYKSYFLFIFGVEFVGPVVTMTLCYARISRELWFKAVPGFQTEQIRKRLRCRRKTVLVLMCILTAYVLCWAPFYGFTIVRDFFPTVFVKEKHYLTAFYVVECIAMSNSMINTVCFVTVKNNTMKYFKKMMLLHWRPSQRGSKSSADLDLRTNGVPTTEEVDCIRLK

B1: snake venom Mamba Intestinal Toxin 1 (MIT1) (ligand)
peptide: AVITGACERDLQCGKGTCCAVSLWIKSVRVCTPVGTSGEDCHPASHKIPFSGQRMHHTCPCAPNLACVQTSPKKFKCLSK
notes: also called snake venom MIT1; non-labeled MIT1
For B1, the IC50 [1] was 0.038 nM and the IC50 [2] was 0.032 nM.

B2: human type ZAQ ligand mature peptide (type G, 86 amino acid residues) (ligand)
peptide: AVITGACERDVQCGAGTCCAISLWLRGLRMCTPLGREGEECHPGSHKVPFFRKRKHHTCPCLPNLLCSRFPDGRYRCSMDLKNINF
notes: also called human type ZAQ ligand peptide; ZAQL-1
With B2 the IC50 [1] was 0.035 nM, the IC50 [2] was 0.093 nM and the “increase of the intracellular calcium ion concentration (FLIPR), EC50” value [3] was 0.096 nM.
